Key:
Assay in all cases: purified protein
[1] = substrate: COc1ccccc1O; conditions: McIlvaine buffer, 30 °C, 10 min, apparent Km
[2] = substrate: CCn1c(=NN=c2sc3cc(S(=O)(=O)O)ccc3n2CC)sc2cc(S(=O)(=O)O)ccc21; assay type: biochemical, Coprinopsis cinerea; conditions: McIlvaine buffer (pH 2.6 in the standard assay), 30 °C, 10 min, apparent Km
[3] = substrate: COc1cccc(OC)c1O; assay type: biochemical, Coprinopsis cinerea; conditions: McIlvaine buffer, 30 °C, 10 min, apparent Km

B1: CcLcc2 (laccase 2) (Coprinopsis cinerea okayama7#130) (protein)
chain: AIGPSTNLVVANKVIAPDGFSRSAVLAGATQPTVQFPGPVIQGNKNSFFAINVIDALTDPTMLRTTSIHWHGMFQRGTAWADGPAGVTQCPISPGHSFLYKFQALNQAGTFWYHSHHESQYCDGLRGAMVVYDPVDPHRNLYDIDNEATIITLADWYHVPAPSAGLVPTPDSTLINGKGRYAGGPTVPLAVISVTRNRRYRFRLVSLSCDPNYVFSIDGHTMTVIEVDGVNVQPLVVDSIQIFAGQRYSFVLNANRPVGNYWVRANPNIGTTGFVGGVNSAILRYVGASNTDPTTTQTPFSNPLLETNLHPLTNPAAPGLPTPGGVDVAINLNTVFDFSSLTFSVNGATFHQPPVPVLLQIMSGAQTAQQLLPSGSVYVLPRNKVIELSMPGGSTGSPHPFHLHGHEFAVVRSAGSSTYNFANPVRRDVVSAGVAGDNVTIRFRTDNPGPWILHCHIDWHLVLGLAVVFAEDAPTVATMDPPPAWDQLCPIYDALPPNT
- Km [1]: 28070 µM
- Vmax [1]: 2.46 µmol/min/mg
- kcat [1]: 3.12 s⁻¹
- kcat/Km [1]: 111 M⁻¹ s⁻¹
- Km [2]: 930 µM
- Vmax [2]: 667 µmol/min/mg
- kcat [2]: 847 s⁻¹
- kcat/Km [2]: 911000 M⁻¹ s⁻¹
- Km [3]: 1020 µM
- Vmax [3]: 57.5 µmol/min/mg
- kcat [3]: 73 s⁻¹
- kcat/Km [3]: 71600 M⁻¹ s⁻¹

— article PMC4433907, “Heterologous expression and characterization of laccase 2 from Coprinopsis cinerea capable of decolourizing different recalcitrant dyes” (Biotechnology, Biotechnological Equipment, 2014)
